Measurements: patent publication US20070036810A1, “Cyclic amp response element activator proteins and uses related thereto” (priority 2003, published 2007)
Like-named read-outs stand apart in the source and are kept apart here.

Legend:
[1] = molecular target: T1, ATF2-GAL4 fusion molecule (Homo sapiens, UniProt P15336); test: In vivo kinase assay, ATF2-GAL4 fusion in HLR cells; type: cell-based; conditions: 40 hours after transfection
T1 construct: host or cells: HLR cell line (5x GAL4 element-luciferase reporter)
Description: (§1) For in vivo kinase assay, activation domains of CREB or ATF2 transcription factors fused with the yeast GAL4 DNA binding domain (1-147 Amino Acids) constructs are used (Stratagene, PathDetect In Vivo Signal Transduction Pathway trans-reporting Systems). The HLR cell line that contains a 5× GAL4 DNA binding element and TATA box driving luciferase reporter is used per manufacturer's protocol (Stratagene). 10^4 HLR cells are split into each well of 96 well tissue culture plates. After 16 hours, cells are transfected with 100 ng of Creb-GAL4 or ATF2-GAL4 fusion constructs, 30 ng of Renilla luciferase control plasmid together with 100 ng of pCMVSPORT6, pCMVSPORT-CREAP1, pFC-PKA or pFC-MEKK (Stratagene) activator plasmids respectively. Transfection is done with Fugene6 reagent (Roche Molecular Biochemicals, Basel, Switzerland) according to the manufacturers manual. Forty hours after transfection, a Dual-Glo Luciferase assay (Promega) is conducted using the manufacturer's protocol.
(§2) As CREAP1 strongly activates CRE promoter transcription, we next investigated whether CREAP1 works through the CREB pathway. […]

[2] = molecular target: T2, CREB-GAL4 fusion molecule (UniProt P04386+P16220); test: In vivo kinase assay, CREB-GAL4 fusion in HLR cells; type: cell-based; conditions: 40 hours after transfection
T2 construct: host or cells: HLR cell line (5x GAL4 element-luciferase reporter)
Description: as §1, §2

[3] = tested on: cAMP responsive genes in HeLa cells; conditions: vs pCMV-Sport6 vector
Excerpt: HeLa cells are transfected with CREAP1 as described herein or expression constructs containing relA, (Ruben S M et al., Science 1991 Mar. 22;251(5000):1490-3), MAP3K11 (Hartkamp, J. et al., (1999). Cancer Res. 59, 2195-2202) or ANKRD3 (Muto, A., et al., (2002) J. Biol. Chem. 277, 31871-31876.) using Targefect F1 transfection reagent (Targeting Systems, Santee, Calif.) according to the protocol supplied with the product. Briefly, HeLa cells are used for the transfection at 70-80% of confluency in T75 tissue culture flasks (Falcon). Transfection mixes are prepared as follows: to 50 ml conical tube (Falcon) with 8 ml of Opti-MEM I 20 μg of selected plasmid DNA is added and mixed by flicking the tube. Two transfections are set up with pCMV-Sport6 empty vector. Targefect F-1 stock solution is vortexed at full speed for 20 seconds and 40 μl are added to each tube, mixed again by flicking the tube and incubated at room temperature for 30 minutes to allow formation of transfection complexes. HeLa cells are washed twice with 20 ml of Opti-MEM I medium and […] of each transfection complex are added per 1 T75 flask. After 4 hrs of incubation at 37° C. 8 ml of growth media with serum is added to each flask. The media is replaced the next day. 56 hours post-transfection the media is replaced again and to one of the flasks transfected with pCMV-Sport6 plasmid TNFα (R&D Systems) is added at 50 ng/ml and the incubation is continued at 37° C. for the next 16 hours. 72 hours post-transfection cells are collected in 10 ml of TRIzol reagent (Gibco BRL) and frozen at −80° C. Total RNA is isolated according to the protocol supplied with the TRIzol reagent. Synthesis labeling of double-stranded cDNA probes, Affymetrix Gene-Chip hybridization and data analysis are done according to conventional methods (see also Eberwine, J., et al., J. Neurosci. 21, 8310-8314 and Hakak, Y., et al., (2001) Proc. Natl. Acad. Sci. U.S.A. 98, 4746-4751).
To determine if CREAP1 regulates expression of authentic CREB targets, cellular gene expression was measured using DNA microarrays after overexpression of CREAP1. Briefly, HeLa cells were transiently transfected with pCMV-Sport6, CREAP1 using Targefect F1 reagent (Targeting Systems). One half of pCMV-Sport6 transfected cells were left untreated and was used as a negative control. Total RNA isolation, labeled probe preparation and DNA microchip hybridization protocol were performed as described above.

T2 sequence (P04386+P16220 fused): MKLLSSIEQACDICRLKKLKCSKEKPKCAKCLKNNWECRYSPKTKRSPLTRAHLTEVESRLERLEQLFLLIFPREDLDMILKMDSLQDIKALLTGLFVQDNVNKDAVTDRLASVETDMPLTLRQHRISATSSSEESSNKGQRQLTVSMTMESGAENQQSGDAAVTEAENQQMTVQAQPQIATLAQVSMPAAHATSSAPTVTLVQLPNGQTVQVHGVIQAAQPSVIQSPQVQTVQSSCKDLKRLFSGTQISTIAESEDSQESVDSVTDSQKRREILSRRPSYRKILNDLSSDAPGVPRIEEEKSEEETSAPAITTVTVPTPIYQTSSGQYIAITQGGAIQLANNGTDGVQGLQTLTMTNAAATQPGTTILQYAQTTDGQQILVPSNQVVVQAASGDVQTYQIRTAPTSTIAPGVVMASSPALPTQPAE
T1 sequence (P15336 with tags, fused parts or gaps limits assumed): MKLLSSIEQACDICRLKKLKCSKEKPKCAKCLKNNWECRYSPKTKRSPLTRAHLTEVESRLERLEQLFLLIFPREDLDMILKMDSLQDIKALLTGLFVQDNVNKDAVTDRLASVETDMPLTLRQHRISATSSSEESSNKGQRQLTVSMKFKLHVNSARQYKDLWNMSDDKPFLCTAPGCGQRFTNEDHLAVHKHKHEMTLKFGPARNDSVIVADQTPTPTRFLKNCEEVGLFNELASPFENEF

B1: CREAP1: human CRE activating protein 1, 650 amino acids, SEQ ID NO 2; expressed from pCMVSPORT-CREAP1 (protein)
chain: MATSNNPRKFSEKIALHNQKQAEETAAFEEVMKDLSLTRAARLQLQKSQYLQLGPSRGQYYGGSLPNVNQIGSGTMDLPFQPSGFLGEALAAAPVSLTPFQSSGLDTSRTTRHHGLVDRVYRERGRLGSPHRRPLSVDKHGRQADSCPYGTMYLSPPADTSWRRTNSDSALHQSTMTPTQPESFSSGSQDVHQKRVLLLTVPGMEETTSEADKNLSKQAWDTKKTGSRPKSCEVPGINIFPSADQENTTALIPATHNTGGSLPDLTNIHFPSPLPTPLDPEEPTFPALSSSSSTGNLAANLTHLGIGGAGQGMSTPGSSPQHRPAGVSPLSLSTEARRQQASPTLSPLSPITQAVAMDALSLEQQLPYAFFTQAGSQQPPPQPQPPPPPPPASQQPPPPPPPQAPVRLPPGGPLLPSASLTRGPQPPPLAVTVPSSLPQSPPENPGQPSMGIDIASAPALQQYRTSAGSPANQSPTSPVSNQGFSPGSSPQHTSTLGSVFGDAYYEQQMAARQANALSHQLEQFNMMENAISSSSLYSPGSTLNYSQAAMMGLTGSHGSLPDSQQLGYASHSGIPNIILTVTGESPPSLSKELTSSLAGVGDVSFDSDSQFPLDELKIDPLTLDGLHMLNDPDMVLADPATEDTFRMDRL
modifications: human
[1]
  activation of the ATF2-GAL4 fusion molecule: unable to activate
[2]
  transactivation of the CREB-GAL4 fusion molecule on the GAL4 promoter: strongly stimulates
[3]; CAPL protein mRNA (38088_r_at)
  Fold Activation: 19
[3]; DKFZp566K192 mRNA (32242_at)
  Fold Activation: 32
[3]; Exodus-1 mRNA (40385_at)
  Fold Activation: 15
[3]; IL-8 mRNA (1369_s_at)
  Fold Activation: 2.5
[3]; KIAA0467 mRNA (41458_at)
  Fold Activation: 12
[3]; PEPCK mRNA (33702_f_at)
  Fold Activation: 32
[3]; TSHa mRNA (39352_at)
  Fold Activation: 57
[3]; amphiregulin mRNA (34898_at)
  Fold Activation: 19
